# Residue numbers refer to the chain shown, from its start. Names and notes keep the numbering of the source.
# B1: E2Δ3-his mature protein (other)
# chain: ETHVTGGNAGRTTAGLVGLLTPGAKQNIQLINTNGSWHINSTALNCNESLNTGWLAGLFYQHKFNSSGCPERLASCRRLTDFAQGWGPISYANGSGLDERPYCWHYPPRPCGIVPAKSVCGPVYCFTPSPVVVGTTDRSGAPTYSWGANDTDVFVLNNTRPPLGNWFGCTWMNSTGFTKVCGAPPCGSSGCPTDCFRKHPEATYSRCGSGPWITPRCMVDYPYRLWHYPCTINYTIFKVRMYVGGVEHRLEAACNWTRGERCDLEDRDRSEHHHHHH
# B2: E2 glycoprotein expressed from pE1E2 Δ23 (HVR2 and igVR deletions) (other)
# chain: ETHVTGGNAGRTTAGLVGLLTPGAKQNIQLINTNGSWHINSTALNCNESLNTGWLAGLFYQHKFNSSGCPERLASCGSSGCWHYPPRPCGIVPAKSVCGPVYCFTPSPVVVGTTDRSGAPTYSWGANDTDVFVLNNTRPPLGNWFGCTWMNSTGFTKVCGAPPCGSSGCPTDCFRKHPEATYSRCGSGPWITPRCMVDYPYRLWHYPCTINYTIFKVRMYVGGVEHRLEAACNWTRGERCDLEDRDRSELSPLLLSTTQWQVLPCSFTTLPALSTGLIHLHQNIVDVQYLYGVGSSIASWAIKWEYVVLLFLLLADARVCSCLWMMLLISQAEA
# notes: also called HVR2+igVR
# B3: E2Δ2-his mature protein (other)
# chain: ETHVTGGNAGRTTAGLVGLLTPGAKQNIQLINTNGSWHINSTALNCNESLNTGWLAGLFYQHKFNSSGCPERLASCGSSGCWHYPPRPCGIVPAKSVCGPVYCFTPSPVVVGTTDRSGAPTYSWGANDTDVFVLNNTRPPLGNWFGCTWMNSTGFTKVCGAPPCVIGGVGNNTLLCPTDCFRKHPEATYSRCGSGPWITPRCMVDYPYRLWHYPCTINYTIFKVRMYVGGVEHRLEAACNWTRGERCDLEDRDRSEHHHHHH
# B4: E2Δ23-his mature protein (other)
# chain: ETHVTGGNAGRTTAGLVGLLTPGAKQNIQLINTNGSWHINSTALNCNESLNTGWLAGLFYQHKFNSSGCPERLASCGSSGCWHYPPRPCGIVPAKSVCGPVYCFTPSPVVVGTTDRSGAPTYSWGANDTDVFVLNNTRPPLGNWFGCTWMNSTGFTKVCGAPPCGSSGCPTDCFRKHPEATYSRCGSGPWITPRCMVDYPYRLWHYPCTINYTIFKVRMYVGGVEHRLEAACNWTRGERCDLEDRDRSEHHHHHH
# B5: CD81 MBP-LEL containing the F186S mutation (receptor)
# chain: FVNKDQIAKDVKQFYDQALQQAVVDDDANNAKAVVKTFHETLDCCGSSTLTALTTSVLKNNLCPSGSNIISNLSKEDCHQKIDDLFSGK
# B6: E2-his mature protein (wild type, residues 384-661, strain H77c) (other)
# chain: ETHVTGGNAGRTTAGLVGLLTPGAKQNIQLINTNGSWHINSTALNCNESLNTGWLAGLFYQHKFNSSGCPERLASCRRLTDFAQGWGPISYANGSGLDERPYCWHYPPRPCGIVPAKSVCGPVYCFTPSPVVVGTTDRSGAPTYSWGANDTDVFVLNNTRPPLGNWFGCTWMNSTGFTKVCGAPPCVIGGVGNNTLLCPTDCFRKHPEATYSRCGSGPWITPRCMVDYPYRLWHYPCTINYTIFKVRMYVGGVEHRLEAACNWTRGERCDLEDRDRSEHHHHHH
# Assays:
# [1] = biological target: B5; assay: MBP-LEL ELISA, H53 detection
# [2] = biological target: T1, CD81 MBP-LEL (maltose-binding protein fused to the CD81 large extracellular loop, residues 113-201) (human, UniProt P60033 113-201); assay: CD81 MBP-LEL ELISA, purified E2-his proteins, H53 detection
# T1 construct: range 113-201
# T1 sequence: B5 chain with S74F
# [3] = biological target: T1, CD81 MBP-LEL (maltose-binding protein …); assay: CD81 MBP-LEL solid-phase assay, intracellular E2
# [4] = biological target: E2Δ12-his mature protein (hepatitis C virus H77c, UniProt P27958 409-661); assay: MBP-LEL ELISA, H53 detection
Binder,binding result [1],binding result [2],binding result [3],binding result [4]
B1,no binding,binds,,
B2,,,binds,
B3,no binding,,,
B4,no binding,binds,,
B5,,,,no binding
B6,no binding,binds,,
